This is an account of results in US20070134724.

This series has as its system tau.

With Gleevec-resistant abl1 (T3611 form), the “tyrosine phosphorylation of tau in the presence of Gleevec (western blot, ELISA)” value is reported as “In the presence of Gleevec, both forms could phosphorylate tau”.
